Measured values taken from patent publication US9605064B2, “Methods and compositions for treatment of skin disorders” (AbbVie Biotechnology Ltd, priority 2006, dated 2017).
Marks after values point to notes of the source that are not given here.

What was measured:
[1] = tested on: patients with moderate to severe plaque psoriasis; experiment: PASI response and relapse, 12-week open-label weekly therapy then randomized eow or withdrawal; assay type: in vivo, human
C-reactive protein (CRP) = experiment: C-reactive protein concentrations, post-hoc analysis of REVEAL; assay type: in vivo, human; details: for mean change from baseline in CRP: 16 wks
Procedure: Changes in CRP concentrations were also evaluated in subgroups with or without self-reported psoriatic arthritis (PsA) and with or without obesity (by body mass index [BMI]).

[2] = tested on: patients with moderate to severe chronic plaque psoriasis; experiment: Adverse events, CHAMPION 16-week Phase III trial; details: 16-week study
Excerpt: The study was a multi-center, 16-week, randomized controlled Phase III trial. The main inclusion criteria included: • Clinical diagnosis of psoriasis for ≧1 year • Affected body surface area (BSA)≧10% • Psoriasis Area and Severity Index (PASI)≧10 The main exclusion criteria was previous use of MTX or systemic anti-TNF therapy.

[3] = tested on: patients with moderate to severe chronic plaque psoriasis; experiment: Adverse events, 120-week open-label extension study; details: 40 mg eow; for Hypercholesterolemia / Increased triglycerides: non-fasting
Procedure: Inclusion criteria included: moderate to severe chronic plaque psoriasis: ≧1 year and affected BSA: ≧5%. Exclusion criteria included prior TNF-antagonist therapy.
PASI responses and PGA scores were analyzed as observed. […] Thus, patients whose dosages increased were counted as non-responders from the time of dosage escalation. Adverse events were collected throughout the 120-week period.

[4] = Week 4, open-label 40 mg weekly, missing = non-responder
[5] = Week 8, open-label 40 mg weekly, missing = non-responder
[6] = Week 12, open-label 40 mg weekly, missing = non-responder
[7] = Week 24, randomized at Week 12 to 40 mg eow, missing = non-responder
[8] = open-label 40 mg weekly, Week 12
[9] = MTX N = 110, Adalimumab N = 107

Substance: Adalimumab: a human anti-TNF mAb, described in U.S. Pat. No. 6,090,382 as D2E7 (HUMIRA, Abbott Laboratories)
- PASI50 response, Patients (%) [1, 4]: 59%
- PASI75 response, Patients (%) [1, 4]: 26%
- PASI90 response, Patients (%) [1, 4]: 9%
- PASI50 response, Patients (%) [1, 5]: 84%
- PASI75 response, Patients (%) [1, 5]: 55%
- PASI90 response, Patients (%) [1, 5]: 30%
- PASI50 response, Patients (%) [1, 6]: 92%
- PASI75 response, Patients (%) [1, 6]: 30%
- PASI90 response, Patients (%) [1, 6]: 47%
- PASI50, Patients (%) [1, 7]: 78%
- PASI75, Patients (%) [1, 7]: 68** %
- PASI90, Patients (%) [1, 7]: 47** %
- PASI 50 response rate ([1]; open-label 40 mg weekly, Week 2): 28%
- PASI 50 response rate [1, 8]: 92%
- PASI 75 response [1, 8]: 76.4%
- PASI 90 response [1, 8]: 47.3%
- patients who achieved ≧PASI 50 responses ([1]; patients exposed to alefacept within the past year, Week 12): 6/6
- patients who achieved ≧PASI 50 responses ([1]; patients exposed to efalizumab within the past year, Week 12): 14/15
- patients who achieved ≧PASI 50 responses ([1]; patients exposed to etanercept within the past year, Week 12): 12/14
- patients who achieved ≧PASI 50 responses ([1]; patients exposed to infliximab within the past year, Week 12): 4/4
- mean change from baseline in CRP (C-reactive protein (CRP); Ps group (without self-reported PsA)): −1.3
- patients with elevated CRP at baseline who had a normal CRP (C-reactive protein (CRP); Ps group, Wk 16): 64.6%
- mean change from baseline in CRP (C-reactive protein (CRP); PsA group): −6.3
- patients with elevated CRP at baseline who had a normal CRP (C-reactive protein (CRP); PsA group, Week 16): 71.9%
- patients changed from elevated CRP at baseline to a normal CRP (C-reactive protein (CRP); obese patients, Week 16): 64.1%
- Any AE [2, 9]: 79 (74) n (%)
- Any AE leading to discontinuation [2, 9]: 1 (1) n (%)
- Any SAE [2, 9]: 2 (2) n (%)
- Arthralgia ([2]; common AE in ≧5% of patients): 6 (6) n (%)
- Gamma-Glutamyltransferase Increased ([2]; common AE in ≧5% of patients): 2 (2) n (%)
- Headache ([2]; common AE in ≧5% of patients): 14 (13) n (%)
- Nasopharyngitis ([2]; common AE in ≧5% of patients): 30 (28) n (%)
- Nausea ([2]; common AE in ≧5% of patients): 4 (4) n (%)
- Pruritus ([2]; common AE in ≧5% of patients): 4 (4) n (%)
- Rhinitis ([2]; common AE in ≧5% of patients): 3 (3) n (%)
- Rhinorrhea ([2]; common AE in ≧5% of patients): 3 (3) n (%)
- Viral Infection ([2]; common AE in ≧5% of patients): 0 (0) n (%)
- cases of tuberculosis, demyelinating disorder, lupus-like syndrome, lymphoma, or congestive heart failure ([3]; 120-week period): No cases
- AEs leading to withdrawal, patients ([3]; Week 0-24 (n = 92)): 4 (4.3) n (%)
- Any AE, patients ([3]; Week 0-24 (n = 92)): 69 (75.0) n (%)
- Diarrhea ([3]; Week 0-24 (n = 92)): 5 (5.4) n (%)
- Headache ([3]; Week 0-24 (n = 92)): 7 (7.6) n (%)
- Infectious AEs, patients ([3]; Week 0-24 (n = 92)): 28 (30.4) n (%)
- Malignant AEs, patients ([3]; Week 0-24 (n = 92)): 1 (1.1) n (%)
- Nasopharyngitis ([3]; Week 0-24 (n = 92)): 9 (9.8) n (%)
- Serious AEs, patients ([3]; Week 0-24 (n = 92)): 2 (2.2) n (%)
- Sinusitis ([3]; Week 0-24 (n = 92)): 1 (1.1) n (%)
- Hypercholesterolemia ([3]; Week 0-24 (n = 92)): 4 (4.3) n (%)
- Increased triglycerides ([3]; Week 0-24 (n = 92)): 7 (7.6) n (%)
- AEs leading to withdrawal, patients ([3]; Week 25-48 (n = 78)): 0 (0.0) n (%)
- Any AE, patients ([3]; Week 25-48 (n = 78)): 33 (42.3) n (%)
- Diarrhea ([3]; Week 25-48 (n = 78)): 1 (1.3) n (%)
- Headache ([3]; Week 25-48 (n = 78)): 0 (0.0) n (%)
- Malignant AEs, patients ([3]; Week 25-48 (n = 78)): 0 (0.0) n (%)
- Nasopharyngitis ([3]; Week 25-48 (n = 78)): 5 (6.4) n (%)
- Serious AEs, patients ([3]; Week 25-48 (n = 78)): 0 (0.0) n (%)
- Sinusitis ([3]; Week 25-48 (n = 78)): 1 (1.3) n (%)
- Hypercholesterolemia ([3]; Week 25-48 (n = 78)): 0 (0.0) n (%)
- Increased triglycerides ([3]; Week 25-48 (n = 78)): 1 (1.3) n (%)
- AEs leading to withdrawal, patients ([3]; Week 49-72 (n = 62)): 0 (0.0) n (%)
- Any AE, patients ([3]; Week 49-72 (n = 62)): 28 (45.2) n (%)
- Diarrhea ([3]; Week 49-72 (n = 62)): 1 (1.6) n (%)
- Headache ([3]; Week 49-72 (n = 62)): 0 (0.0) n (%)
- Malignant AEs, patients ([3]; Week 49-72 (n = 62)): 0 (0.0) n (%)
- Nasopharyngitis ([3]; Week 49-72 (n = 62)): 1 (1.6) n (%)
- Serious AEs, patients ([3]; Week 49-72 (n = 62)): 0 (0.0) n (%)
- Sinusitis ([3]; Week 49-72 (n = 62)): 1 (1.6) n (%)
- Hypercholesterolemia ([3]; Week 49-72 (n = 62)): 1 (1.6) n (%)
- Increased triglycerides ([3]; Week 49-72 (n = 62)): 1 (1.6) n (%)
- AEs leading to withdrawal, patients ([3]; Week 73-96 (n = 55)): 0 (0.0) n (%)
- Any AE, patients ([3]; Week 73-96 (n = 55)): 27 (49.1) n (%)
- Diarrhea ([3]; Week 73-96 (n = 55)): 0 (0.0) n (%)
- Headache ([3]; Week 73-96 (n = 55)): 0 (0.0) n (%)
- Malignant AEs, patients ([3]; Week 73-96 (n = 55)): 0 (0.0) n (%)
- Nasopharyngitis ([3]; Week 73-96 (n = 55)): 3 (5.5) n (%)
- Serious AEs, patients ([3]; Week 73-96 (n = 55)): 0 (0.0) n (%)
- Sinusitis ([3]; Week 73-96 (n = 55)): 3 (5.5) n (%)
- Hypercholesterolemia ([3]; Week 73-96 (n = 55)): 3 (5.5) n (%)
- Increased triglycerides ([3]; Week 73-96 (n = 55)): 1 (1.8) n (%)
- AEs leading to withdrawal, patients ([3]; Week 97-120 (n = 53)): 0 (0.0) n (%)
- Any AE, patients ([3]; Week 97-120 (n = 53)): 25 (47.2) n (%)
- Diarrhea ([3]; Week 97-120 (n = 53)): 3 (5.7) n (%)
- Headache ([3]; Week 97-120 (n = 53)): 0 (0.0) n (%)
- Malignant AEs, patients ([3]; Week 97-120 (n = 53)): 0 (0.0) n (%)
- Nasopharyngitis ([3]; Week 97-120 (n = 53)): 2 (3.8) n (%)
- Serious AEs, patients ([3]; Week 97-120 (n = 53)): 1 (1.9) n (%)
- Sinusitis ([3]; Week 97-120 (n = 53)): 1 (1-9) n (%)
- Hypercholesterolemia ([3]; Week 97-120 (n = 53)): 1 (1.9) n (%)
- Increased triglycerides ([3]; Week 97-120 (n = 53)): 0 (0.0) n (%)
